Patent US20260263580A1

Legend:
[1] = target: envelope proteins E1/E2 of high-yield genotype 1a recombinant virus TNcc-HI (hepatitis C virus genotype 1a, strain TNcc-HI) (UniProt P26664); test: cell-based or functional assay
[2] = target: envelope proteins E1/E2 of high-yield genotype 2a recombinant virus J6cc-HI (hepatitis C virus genotype 2a, strain J6cc-HI) (UniProt P26660); test: cell-based or functional assay
[3] = target: envelope proteins E1/E2 of high-yield genotype 3a recombinant virus DBNcc-HI (hepatitis C virus genotype 3a, strain DBNcc-HI) (UniProt Q81258); test: cell-based or functional assay
[4] = target: envelope proteins E1/E2 of the original genotype 3a recombinant virus DBN3acc (hepatitis C virus genotype 3a, strain DBN3acc) (UniProt Q81258); test: cell-based or functional assay
[5] = target: envelope proteins E1/E2 of the genotype 1a HCV seed stock derived from TNcc-PP-18 (hepatitis C virus genotype 1a, strain TNcc) (UniProt P26664); test: cell-based or functional assay
[6] = target: J6cc-HI E1/E2 complexes from lysates of HEK293 cells transfected with an E1/E2 expression plasmid (hepatitis C virus genotype 2a, strain J6cc-HI) (UniProt P26660); test: ELISA on lectin-captured E1/E2 complexes, negative control (FIG. 11)
[7] = target: TNcc-HI E1/E2 complexes from lysates of HEK293 cells transfected with an E1/E2 expression plasmid (hepatitis C virus genotype 1a, strain TNcc-HI) (UniProt P26664); test: as above
[8] = target: DBNcc-HI E1/E2 complexes from lysates of HEK293 cells transfected with an E1/E2 expression plasmid (hepatitis C virus genotype 3a, strain DBNcc-HI) (UniProt Q81258); test: as above
[9] = target: J6cc-HI E1/E2 complexes from lysates of HEK293 cells transfected with an E1/E2 expression plasmid (hepatitis C virus genotype 2a, strain J6cc-HI) (UniProt P26660); test: ELISA on lectin-captured E1/E2 complexes, negative control (FIG. 13)
[10] = target: TNcc-HI E1/E2 complexes from lysates of HEK293 cells transfected with an E1/E2 expression plasmid (hepatitis C virus genotype 1a, strain TNcc-HI) (UniProt P26664); test: as above
[11] = target: DBNcc-HI E1/E2 complexes from lysates of HEK293 cells transfected with an E1/E2 expression plasmid (hepatitis C virus genotype 3a, strain DBNcc-HI) (UniProt Q81258); test: as above
[12] = target: J6cc-HI E1/E2 complexes from lysates of HEK293 cells transfected with an E1/E2 expression plasmid (hepatitis C virus genotype 2a, strain J6cc-HI) (UniProt P26660); test: ELISA on lectin-captured E1/E2 complexes, negative control (FIG. 12)
[13] = target: TNcc-HI E1/E2 complexes from lysates of HEK293 cells transfected with an E1/E2 expression plasmid (hepatitis C virus genotype 1a, strain TNcc-HI) (UniProt P26664); test: as above
[14] = target: DBNcc-HI E1/E2 complexes from lysates of HEK293 cells transfected with an E1/E2 expression plasmid (hepatitis C virus genotype 3a, strain DBNcc-HI) (UniProt Q81258); test: as above

Q: human monoclonal antibody AR3A was tested. Which fold increased neutralization sensitivity against 1a(TN) [1] did it give?
A: Its fold increased neutralization sensitivity against 1a(TN) is 300 fold.

Q: And the fold increased neutralization sensitivity against 2a(J6) [2]?
A: Its fold increased neutralization sensitivity against 2a(J6) is 440 fold.

Q: What about the fold increased neutralization sensitivity against 3a(DBN) [3] of the same substance?
A: The fold increased neutralization sensitivity against 3a(DBN) was 1250 fold.

Q: What about the fold increased neutralization sensitivity against 3a(DBN) [4] of the same substance?
A: The fold increased neutralization sensitivity against 3a(DBN) was 167 fold.

Q: What about the fold increased neutralization sensitivity against 1a(TN) [5] of the same substance?
A: The fold increased neutralization sensitivity against 1a(TN) was 3 fold.

Q: For human monoclonal antibody AR4A, which fold increased neutralization sensitivity against 1a(TN) [1] is on record?
A: Its fold increased neutralization sensitivity against 1a(TN) is 2400 fold.

Q: And the fold increased neutralization sensitivity against 2a(J6) [2]?
A: The fold increased neutralization sensitivity against 2a(J6) was 12 fold.

Q: And the fold increased neutralization sensitivity against 3a(DBN) [3]?
A: Its fold increased neutralization sensitivity against 3a(DBN) is 220 fold.

Q: And the fold increased neutralization sensitivity against 3a(DBN) [4]?
A: Its fold increased neutralization sensitivity against 3a(DBN) is 22 fold.

Q: What about the fold increased neutralization sensitivity against 1a(TN) [5] of the same substance?
A: The fold increased neutralization sensitivity against 1a(TN) was 15 fold.

Q: Which results are given for “ECL sheep anti-mouse IgG horseradish-peroxidase linked whole antibody (GE Healthcare)”?
A: OD at 450 nm [6]: 0.05 OD; OD at 450 nm [7]: 0.05 OD; OD at 450 nm [8]: 0.05 OD; OD at 450 nm [9]: 0.05 OD; OD at 450 nm [10]: 0.05 OD; OD at 450 nm [11]: 0.05 OD; OD at 450 nm [12]: 0.05 OD; OD at 450 nm [13]: 0.05 OD; OD at 450 nm [14]: 0.05 OD
